Results taken from paper PMC7327498, “Structural basis of semaphorin‐plexin cis interaction” (The EMBO Journal, 2020).
Positions count from the first letter of the chain named.

B1: Sema1b_(ecto)‐mutB (domain or fragment, Drosophila melanogaster, UniProt Q7KK54 37-659, looked up)
chain: DVKPDLQTKQDKVLAHFIGNSTDYFKILDHNDEFVLVGAKDVIYNVSLNGLKEIARLEWHSTDADRELCALKGKHEWDCHNYLRVYALRPNGEVLLCGTNSYKPRCRHYTPVEVSSEEAGSAGHAHAMRYEVSRDVEAQGLCPYSPAHNSTYAFADGHLYSATVADFSGGDPLIYRENLRTEQYDLKQLNQPDFVGAIERNGYVLFFFRELSMEVMNFGKAVYSRVARVCKNDRGGPYSHGKSWTSFLKARLNCSVPGEFPFYFDEIQAISPIVESGSKSLIYAVFTTSVNAIPGSAVCAFNVDDILAAFDGEAAAAAAAAAAAAAAAAAAVPKPRPGQCVEDSRTLTSIAVNFIKNHPLMEEAVPAVHGRPLLTKVNLHHRLTAIAVHPQVKSLSGAYYDVIYSGTDDGKVTKFINILSTHPNSTVDRLKTVVISEMQVLPLGTPIRELVISTSKNSLVVVSDGSLVSVPLHHCSHIVDCLGCLSLQDPICAWDLQTHECKNLATSQHKFGTKTYLQSLNSTKKAAALLCPHIPRDAPGAETVSFVTMAPPPTEEQKLLYSNVGSSQGNQPSLEQQPTGGDDFGLNKITLTSMDPDDIMPNLNDPQKSTASVDEIKYASTPS
notes: Semaphorin 1b (Sema1b), Drosophila melanogaster, ectodomain, residues 37–659, Exβ1‐β2 loop 350–367 replaced by alanines; synthetic clone (Invitrogen-GeneArt); also called Sema1b‐mutB; Sema1b‐mutant B; source: HEK 293T, transient transfection, purified (HisTrap, SEC)
B2: Sema1b‐mRuby2 (ligand, Drosophila melanogaster, UniProt Q7KK54 37-686, looked up)
chain: DVKPDLQTKQDKVLAHFIGNSTDYFKILDHNDEFVLVGAKDVIYNVSLNGLKEIARLEWHSTDADRELCALKGKHEWDCHNYLRVYALRPNGEVLLCGTNSYKPRCRHYTPVEVSSEEAGSAGHAHAMRYEVSRDVEAQGLCPYSPAHNSTYAFADGHLYSATVADFSGGDPLIYRENLRTEQYDLKQLNQPDFVGAIERNGYVLFFFRELSMEVMNFGKAVYSRVARVCKNDRGGPYSHGKSWTSFLKARLNCSVPGEFPFYFDEIQAISPIVESGSKSLIYAVFTTSVNAIPGSAVCAFNVDDILAAFDGEFKSQKDSQSHWLPVEREQVPKPRPGQCVEDSRTLTSIAVNFIKNHPLMEEAVPAVHGRPLLTKVNLHHRLTAIAVHPQVKSLSGAYYDVIYSGTDDGKVTKFINILSTHPNSTVDRLKTVVISEMQVLPLGTPIRELVISTSKNSLVVVSDGSLVSVPLHHCSHIVDCLGCLSLQDPICAWDLQTHECKNLATSQHKFGTKTYLQSLNSTKKAAALLCPHIPRDAPGAETVSFVTMAPPPTEEQKLLYSNVGSSQGNQPSLEQQPTGGDDFGLNKITLTSMDPDDIMPNLNDPQKSTASVDEIKYASTPSFMLLTTIVFFTFLVGGIAGICCVKAKS
notes: Semaphorin 1b (Sema1b), Drosophila melanogaster, residues 37–686: ectodomain followed by a transmembrane segment; also called wild‐type Sema1b‐mRuby2; source: COS-7, transiently transfected, on live cells; not shown: mRuby2, C-terminal, kept
B3: Sema1b‐mutA‐mRuby2 (ligand, Drosophila melanogaster, UniProt Q7KK54 37-686, looked up)
chain: B2 chain with F167E, Q183R, K187E
notes: Semaphorin 1b (Sema1b), Drosophila melanogaster, residues 37–686, site A mutant; source: COS-7, transiently transfected, on live cells; not shown: mRuby2, C-terminal, kept
B4: Sema1b‐mutB‐mRuby2 (ligand, Drosophila melanogaster, UniProt Q7KK54 37-686, looked up)
chain: DVKPDLQTKQDKVLAHFIGNSTDYFKILDHNDEFVLVGAKDVIYNVSLNGLKEIARLEWHSTDADRELCALKGKHEWDCHNYLRVYALRPNGEVLLCGTNSYKPRCRHYTPVEVSSEEAGSAGHAHAMRYEVSRDVEAQGLCPYSPAHNSTYAFADGHLYSATVADFSGGDPLIYRENLRTEQYDLKQLNQPDFVGAIERNGYVLFFFRELSMEVMNFGKAVYSRVARVCKNDRGGPYSHGKSWTSFLKARLNCSVPGEFPFYFDEIQAISPIVESGSKSLIYAVFTTSVNAIPGSAVCAFNVDDILAAFDGEAAAAAAAAAAAAAAAAAAVPKPRPGQCVEDSRTLTSIAVNFIKNHPLMEEAVPAVHGRPLLTKVNLHHRLTAIAVHPQVKSLSGAYYDVIYSGTDDGKVTKFINILSTHPNSTVDRLKTVVISEMQVLPLGTPIRELVISTSKNSLVVVSDGSLVSVPLHHCSHIVDCLGCLSLQDPICAWDLQTHECKNLATSQHKFGTKTYLQSLNSTKKAAALLCPHIPRDAPGAETVSFVTMAPPPTEEQKLLYSNVGSSQGNQPSLEQQPTGGDDFGLNKITLTSMDPDDIMPNLNDPQKSTASVDEIKYASTPSFMLLTTIVFFTFLVGGIAGICCVKAKS
notes: Semaphorin 1b (Sema1b), Drosophila melanogaster, residues 37–686, loop 350–367 replaced by alanines; source: COS-7, transiently transfected, on live cells; not shown: mRuby2, C-terminal, kept
B5: Sema1b_(ecto) (domain or fragment, Drosophila melanogaster, UniProt Q7KK54 37-659, looked up)
chain: DVKPDLQTKQDKVLAHFIGNSTDYFKILDHNDEFVLVGAKDVIYNVSLNGLKEIARLEWHSTDADRELCALKGKHEWDCHNYLRVYALRPNGEVLLCGTNSYKPRCRHYTPVEVSSEEAGSAGHAHAMRYEVSRDVEAQGLCPYSPAHNSTYAFADGHLYSATVADFSGGDPLIYRENLRTEQYDLKQLNQPDFVGAIERNGYVLFFFRELSMEVMNFGKAVYSRVARVCKNDRGGPYSHGKSWTSFLKARLNCSVPGEFPFYFDEIQAISPIVESGSKSLIYAVFTTSVNAIPGSAVCAFNVDDILAAFDGEFKSQKDSQSHWLPVEREQVPKPRPGQCVEDSRTLTSIAVNFIKNHPLMEEAVPAVHGRPLLTKVNLHHRLTAIAVHPQVKSLSGAYYDVIYSGTDDGKVTKFINILSTHPNSTVDRLKTVVISEMQVLPLGTPIRELVISTSKNSLVVVSDGSLVSVPLHHCSHIVDCLGCLSLQDPICAWDLQTHECKNLATSQHKFGTKTYLQSLNSTKKAAALLCPHIPRDAPGAETVSFVTMAPPPTEEQKLLYSNVGSSQGNQPSLEQQPTGGDDFGLNKITLTSMDPDDIMPNLNDPQKSTASVDEIKYASTPS
notes: Semaphorin 1b (Sema1b), Drosophila melanogaster, ectodomain, residues 37–659; pHLsec vector; monomer in solution according to the authors' earlier work; also called Sema1b ectodomain; wild-type Sema1b_(ecto); source: HEK 293T, transient transfection, purified from conditioned medium (HisTrap, SEC)
B6: Sema1b_(ecto)‐mutA (domain or fragment, Drosophila melanogaster, UniProt Q7KK54 37-659, looked up)
chain: B5 chain with F167E, Q183R, K187E
notes: Semaphorin 1b (Sema1b), Drosophila melanogaster, ectodomain, residues 37–659, site A mutant; also called Sema1b‐mutA; Sema1b‐mutant A; source: HEK 293T, transient transfection, purified (HisTrap, SEC)

Key:
[1] = target: PlexA_(ecto) (Drosophila melanogaster) (UniProt Q9V491); experiment: AUC; sedimentation velocity, 15 mM HEPES pH 7.4, 150 mM NaCl, 40,000 rpm; PlexA1‐4 at 33 μM, PlexA_(ecto) at 2.2 μM
[2] = target: T1, PlexA1‐4‐mVenus (Drosophila melanogaster, UniProt Q9V491 28-730); experiment: MST; fluorescent PlexA1‐4‐mVenus kept constant, unlabelled Sema1b_(ecto) or mutants titrated; 28°C, 15 mM HEPES pH 7.4, 150 mM NaCl, 2 mM CaCl2, 0.05% Tween‐20; 80% MST power; details: both partners purified
T1 construct: Plexin A (PlexA), Drosophila melanogaster, domains 1-4, residues 28–730; monoVenus follows PlexA1-4 and is followed by the His6 tag; source: HEK 293T, transient transfection, purified (HisTrap, SEC); not shown: mVenus, C-terminal, kept
T1 sequence (looked up): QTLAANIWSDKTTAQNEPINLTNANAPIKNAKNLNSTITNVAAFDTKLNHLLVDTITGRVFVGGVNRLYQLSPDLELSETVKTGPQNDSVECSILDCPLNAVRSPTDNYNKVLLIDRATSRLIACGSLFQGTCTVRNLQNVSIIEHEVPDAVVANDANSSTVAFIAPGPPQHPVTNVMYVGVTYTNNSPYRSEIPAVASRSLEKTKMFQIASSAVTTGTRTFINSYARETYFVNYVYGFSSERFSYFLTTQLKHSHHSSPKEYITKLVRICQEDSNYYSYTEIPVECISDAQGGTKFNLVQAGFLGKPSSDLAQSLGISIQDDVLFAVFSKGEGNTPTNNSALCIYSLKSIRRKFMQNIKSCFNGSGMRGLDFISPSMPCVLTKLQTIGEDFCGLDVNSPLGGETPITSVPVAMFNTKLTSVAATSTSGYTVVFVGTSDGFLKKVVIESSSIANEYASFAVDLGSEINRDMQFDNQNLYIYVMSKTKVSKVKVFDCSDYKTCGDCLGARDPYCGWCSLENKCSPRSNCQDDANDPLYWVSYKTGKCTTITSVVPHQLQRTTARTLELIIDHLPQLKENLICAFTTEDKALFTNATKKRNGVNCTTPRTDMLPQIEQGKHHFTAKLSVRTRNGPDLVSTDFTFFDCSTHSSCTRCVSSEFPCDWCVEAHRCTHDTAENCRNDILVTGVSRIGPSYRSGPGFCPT

[3] = target: T2, PlexA‐mClover (Drosophila melanogaster, UniProt Q9V491 28-1311); experiment: FRET or BRET; FRET-FLIM in live COS-7 cells transiently co-transfected with PlexA‐mClover (donor) and semaphorin‐mRuby2 (acceptor), cis on one cell surface, 37°C; donor alone τav 2.72 ± 0.03 ns; details: partners not purified
T2 construct: Plexin A (PlexA), Drosophila melanogaster, residues 28–1,311: ectodomain followed by a transmembrane segment; not the purified PlexA‐mClover (residues 67–1,274) used as donor-only control in solution; also called FRET donor PlexA‐mClover; source: COS-7, transiently transfected, on live cells; not shown: mClover, C-terminal, kept
T2 sequence (looked up): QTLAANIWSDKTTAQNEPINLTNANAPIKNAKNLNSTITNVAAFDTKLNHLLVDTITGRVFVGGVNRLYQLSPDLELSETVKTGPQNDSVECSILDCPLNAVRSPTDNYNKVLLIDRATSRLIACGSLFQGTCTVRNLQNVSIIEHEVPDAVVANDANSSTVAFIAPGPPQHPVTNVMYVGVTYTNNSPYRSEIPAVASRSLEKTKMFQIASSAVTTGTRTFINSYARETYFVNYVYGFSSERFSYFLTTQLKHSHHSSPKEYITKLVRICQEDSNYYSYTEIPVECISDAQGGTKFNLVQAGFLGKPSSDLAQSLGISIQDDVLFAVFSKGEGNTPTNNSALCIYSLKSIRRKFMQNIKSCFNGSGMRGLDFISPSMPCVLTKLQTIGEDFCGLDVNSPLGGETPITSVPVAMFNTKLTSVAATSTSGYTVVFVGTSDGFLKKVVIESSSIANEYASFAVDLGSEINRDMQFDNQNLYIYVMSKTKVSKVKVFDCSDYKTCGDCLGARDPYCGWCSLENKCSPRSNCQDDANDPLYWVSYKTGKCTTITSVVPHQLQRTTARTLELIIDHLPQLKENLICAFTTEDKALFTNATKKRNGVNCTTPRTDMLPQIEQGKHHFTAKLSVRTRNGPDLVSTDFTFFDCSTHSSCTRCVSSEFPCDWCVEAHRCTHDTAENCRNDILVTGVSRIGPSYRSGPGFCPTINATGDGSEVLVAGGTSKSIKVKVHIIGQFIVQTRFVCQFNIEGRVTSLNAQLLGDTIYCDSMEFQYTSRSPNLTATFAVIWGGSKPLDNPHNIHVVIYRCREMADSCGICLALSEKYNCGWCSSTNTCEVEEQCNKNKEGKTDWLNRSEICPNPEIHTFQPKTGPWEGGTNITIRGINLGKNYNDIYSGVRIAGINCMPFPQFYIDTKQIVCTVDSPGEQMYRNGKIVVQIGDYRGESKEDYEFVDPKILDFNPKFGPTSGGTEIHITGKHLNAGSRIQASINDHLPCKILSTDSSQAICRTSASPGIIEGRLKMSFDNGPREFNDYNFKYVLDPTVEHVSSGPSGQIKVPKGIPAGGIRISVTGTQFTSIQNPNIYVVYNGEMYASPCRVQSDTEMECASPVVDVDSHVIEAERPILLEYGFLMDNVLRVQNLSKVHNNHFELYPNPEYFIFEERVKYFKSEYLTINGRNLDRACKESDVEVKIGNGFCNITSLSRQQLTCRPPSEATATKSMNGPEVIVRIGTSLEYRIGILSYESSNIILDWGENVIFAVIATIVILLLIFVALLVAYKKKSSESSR

[4] = target: T3, PlexA1‐4‐mVenus (Drosophila melanogaster, UniProt Q9V491 28-730); experiment: MST
T3 chain: T1 sequence (looked up)

Row | Molecule | binding result [2] | average donor lifetime (τav) [3] [ns] | average fraction of the interacting donor (fD) [3] | further results
1 | PlexA_(ecto) (from UniProt Q9V491 28-1272) (domain or fragment) |  |  |  | stoichiometry N [1]: < 4
2 | B1 | binds |  |  | 
3 | B2 |  | 2.51 ± 0.06 | 0.26 ± 0.09 | 
4 | B3 |  | 2.43 ± 0.1 | 0.37 ± 0.15 | 
5 | B4 |  | 2.53 ± 0.04 | 0.21 ± 0.07 | 
6 | B5 | binds |  |  | Kd [4]: 586 nM
7 | B6 | binds |  |  | 
